Data set [1] has as its target T1, amyloid beta 1-40 oligomer (UniProt P05067 P05067:672-711). Put plainly: aptamer blotting, 500 nM. The note with it: tags: Peptide Institute peptide; oligomerised from HFIP/water; chain copies: oligomer (stated); label: 5'-FITC; G4. The protocol:
(§1) α-synuclein monomer, oligomer, and fibril (1 μg) was immobilized on a nitrocellulose membrane and dried. Then, the membrane was incubated with 4% skim milk prepared using TBS-T (25 mM Tris-HCl, pH 7.4, 0.15 M NaCl, 0.005 M KCl, 0.05% Tween-20) at room temperature for 1 hour for blocking. After that, the membrane was washed with a sufficient amount of TBS-T (2 min×twice and 10 min×one time). The obtained plural oligonucleotides modified with FITC at the 5′ end (f.c. 100 nM) were folded, and the DNA and the membrane were incubated at room temperature for 1 hour. Next, the membrane was washed with a sufficient amount of TBS-T (2 min×twice, 10 min×one time, and 5 min×twice). After that, an HRP-modified anti-FITC antibody diluted to 1000 times with TBS-T and the membrane were incubated at room temperature for 1 hour and the membrane was washed with a sufficient amount of TBS-T (2 min×twice, 10 min×one time, and 5 min×twice). ECL Plus Western blotting detection reagents (GE Healthcare Ltd.) were added to the membrane, and HRP chemiluminescence was detected by TYPHOON 8600 to observe the binding of the DNA to the protein.
Spot intensities of portions with the immobilized α-Syn oligomer were analyzed to create a calibration curve, whereby an oligomer concentration included in the Aβ₁₋₄₀ oligomer sample was roughly estimated. After that, the Aβ₁₋₄₀ oligomer was immobilized on a nitrocellulose membrane in such a manner that the A11 has the same level of spot intensity, and aptamer blotting was performed using 500 nM of each aptamer. As a control, the A11 was used to perform the same experiment.

The target of data set [2] is T2, alpha-synuclein oligomer (UniProt P37840 P37840:1-140). Put plainly: aptamer blotting; did not retain binding of T-SO504.
Data set [3] has as its target PQQ-dependent glucose dehydrogenase (PQQGDH) (UniProt P13650 P13650:25-478). Put plainly: aptamer blotting, 5 pmol protein. The note with it: label: 5'-FITC; G4. How it is done: as §1
(§2) On the same nitrocellulose membrane, 5 pmol of each of glucose dehydrogenase (PQQGDH) dependent on the coenzyme PQQ, a C-reactive protein (CRP) (Polyscience Corp.), luciferase, and an IgG antibody (Sigma Aldrich Company), and 0.5 μg of α-synuclein oligomer were immobilized. Using the membrane, specificity evaluation was performed by an aptamer blotting method.

The target in data set [4] is T3, C-reactive protein (CRP) (UniProt P02741 P02741:19-224).
T3 sequence: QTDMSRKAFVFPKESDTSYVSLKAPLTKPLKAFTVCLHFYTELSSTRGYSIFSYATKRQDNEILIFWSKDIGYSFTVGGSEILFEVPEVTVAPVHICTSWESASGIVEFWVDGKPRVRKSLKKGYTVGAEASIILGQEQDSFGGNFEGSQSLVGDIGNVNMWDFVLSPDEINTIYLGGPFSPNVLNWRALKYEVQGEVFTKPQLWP
Put plainly: aptamer blotting, 5 pmol protein. The note with it: tags: Polyscience Corp; chain copies: 5; label: 5'-FITC; G4. How it is done: as §1, §2

Data set [5] addresses T1, amyloid beta 1-40 oligomer. Nature of the data set: ELONA; oligomer immobilised on plate, room temp. The following applies: tags: Peptide Institute peptide, oligomerised from HFIP/water, chain copies: oligomer (stated), label: 5'-FITC. The protocol: (§3) 100 μL of 100 μM of an Aβ oligomer solution or PBS buffer was added to each well of MaxiSorp (registered trademark) plate (Nunc Co., Ltd) and incubated at 37° C. for 1.5 hours to immobilize the Aβ oligomer on the wells. Blocking of each well was performed with a 2% (w/v) BSA solution (TBS-T: 25 mM Tris-HCl, pH 7.4, 0.15M NaCl, 0.005M KCl, 0.05% Tween-20) to produce an Aβ oligomer-immobilized plate.
(§4) To each well of the Aβ oligomer-immobilized plate was added the each FITC-labeled aptamer prepared in a concentration of 1 nM, 2.5 nM, or 10 nM, and incubation at room temperature for 60 minutes was carried out. After washing the wells, an HRP-modified anti-FITC antibody (Cosmo BiO Co., Ltd) was added to the wells and incubation was performed at room temperature. After washing the wells, an HRP-luminescent substrate was added to detect the binding of each aptamer to the oligomer by chemiluminescence. FIG. 5 illustrates the results.
Further, using the 10T dimer and the original aptamer T-SO530 in a concentration of 1 nM, 2.5 nM, 10 nM, 20 nM, or 60 nM, an experiment for binding the aptamers to the Aβ oligomer was performed in the same manner as above. Based on the obtained binding signals, curve fitting was performed using GraphPad Prism (MDF Co., Ltd.) to calculate a binding dissociation constant (Kd).

The target in data set [6] is T2, alpha-synuclein oligomer. Nature of the data set: aptamer blotting.
In data set [7] the target is T1, amyloid beta 1-40 oligomer. Put plainly: ELONA; signal from 1 nM versus 10 nM for T-SO530; also strong spot in blotting FIG. 6. The note with it: tags: Peptide Institute peptide; oligomerised from HFIP/water; chain copies: oligomer (stated); label: 5'-FITC. The protocol: as §3, §4
Data set [8] concerns the target T2, alpha-synuclein oligomer. Put plainly: aptamer blotting; binding improved over T-SO504.

T1 sequence (P05067 672-711, one chain of several): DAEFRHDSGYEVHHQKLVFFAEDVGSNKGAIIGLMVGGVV
Sequence of PQQ-dependent glucose dehydrogenase (PQQGDH) (P13650 25-478, one chain of several): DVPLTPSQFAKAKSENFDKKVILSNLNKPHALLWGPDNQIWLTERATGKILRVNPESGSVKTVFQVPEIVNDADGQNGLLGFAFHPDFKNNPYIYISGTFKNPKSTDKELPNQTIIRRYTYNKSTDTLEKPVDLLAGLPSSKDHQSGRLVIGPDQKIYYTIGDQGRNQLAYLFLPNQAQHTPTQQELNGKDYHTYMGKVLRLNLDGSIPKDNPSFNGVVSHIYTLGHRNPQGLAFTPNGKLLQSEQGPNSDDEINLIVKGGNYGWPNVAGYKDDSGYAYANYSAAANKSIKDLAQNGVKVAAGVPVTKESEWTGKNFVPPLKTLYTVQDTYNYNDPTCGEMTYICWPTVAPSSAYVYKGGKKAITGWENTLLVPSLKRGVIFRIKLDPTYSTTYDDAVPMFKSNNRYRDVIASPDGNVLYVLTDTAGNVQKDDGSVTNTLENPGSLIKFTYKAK

Regarding CAGGGGTGGGCAAAGGGCGGTGGTG (structured_DNA) [T-SO504], the binding result in data set [1] is recorded as “binds”.
Regarding AAAAAGGGCAAAGGGAA (ssDNA) [504M2], the binding result in data set [2] was “no binding”.
Regarding GCGGTAGGGTGTGAGCGGAAGGGG (structured_DNA) [T-SO602], the binding result in data set [1] was “binds”.
Turning to GGGTCGGCTGTCCGTGGGTGGGGA (structured_DNA) [T-SO606], the binding result is “binds” in data set [1], “no binding” in data set [3] and “no binding” in data set [4].
Regarding AAAAAGGGTGGGCAAAGGGAA (ssDNA) [504M1], the binding result in data set [2] was “no binding”.
Turning to GCCTGTGGTGTTGGGGCGGGTGCG (structured_DNA) [T-SO508], the binding result in data set [1] was “binds”.
The term Kd denotes the free concentration of one partner at which half of the binding sites on the other are occupied at equilibrium, for simple one-to-one binding. TTTTTGGTGCGGCGGGACTAGTGGGTGTG (structured_DNA) [tT-SO530] gave a Kd in data set [5] (G4) of 9.03 nM.
As for TTTTTCAGGGGTGGGCAAAGGGCGGTGGTG (structured_DNA) [tT-SO504], the binding result in data set [6] was “binds”.

B1: 5T dimer (structured_DNA)
DNA: TTTTTGGTGCGGCGGGACTAGTGGGTGTGTTTTTGGTGCGGCGGGACTAGTGGGTGTG
With B1, in data set [7], the binding result is “binds”.

B2: 10T dimer (structured_DNA)
DNA: TTTTTGGTGCGGCGGGACTAGTGGGTGTGTTTTTTTTTTGGTGCGGCGGGACTAGTGGGTGTG
Consider B2, for which, in data set [5], the affinity, expressed as Kd, was 1.44 nM.
With GCGTGTGGGGCTTGGGCAGCTGGG (structured_DNA) [T-SO552], the binding result in data set [1] was “binds”.

B3: 504W (structured_DNA)
DNA: AAAAACAGGGGTGGGCAAAGGGCGGTGGTGTTTTTCAGGGGTGGGCAAAGGGCGGTGGTG
Regarding B3, the binding result in data set [8] was “binds”.
Turning to GGTGGCTGGAGGGGGCGCGAACG (structured_DNA) [T-SO517], the binding result in data set [1] is “binds”; in data set [3], “no binding”; in data set [4], “no binding”.
Take GGTGCGGCGGGACTAGTGGGTGTG (structured_DNA) [T-SO530]: the binding result in data set [1] was “binds”.
The same measure, in the same setting: next, CGAGGGGCGTCTGGGAGTGGTCGG (structured_DNA) [T-SO554]: “binds”.

For the origin of these results see US20140072986, “AMYLOID PROTEIN OLIGOMER-BINDING APTAMER” (NATIONAL UNIVERSITY CORPORATION TOKYO UNIVERSITY OF …, published 2014).
